Assay results from PMC12820974, “Zinc-Mediated Loading and Release of His-Tagged Recombinant Proteins in Self-Assembling Peptide Coacervates” (ACS Applied Bio Materials, 2025).

Assays:
[1] = biological target: EAKH6 self-assembling peptide (EAK16-II with a C-terminal hexa-histidine tag)
[2] = biological target: EAKH6 self-assembling peptide (EAK16-II with a C-terminal hexa-histidine tag); remark: listed apart in the source
[3] = biological target: the molecule itself; assay: Congo red staining (fluorescence microscopy and UV-vis absorbance); EAKH6 alone and with Zn2+ at molar ratios 1:20 to 20:1, incubated with Congo red in PBS overnight at room temperature; fibrils imaged, shift of absorbance from 500 to 540 nm

Molecule | in vitro release of HisGFP from Ca2+:EAKH6 (10:1, without Zn2+) coacervates, control; released in 5 days [1] [%] | apparent diffusion (D app) of HisGFP out of Ca2+:EAKH6 coacervates (without Zn2+), control, from the release up to 8 h [2] [m^2 s^-1] | apparent diffusion (D app) of HisGFP out of Zn2+:EAKH6 coacervates, from the release up to 8 h [2] [m^2 s^-1] | binding result [3]
Green Fluorescent Protein coexpressed with a hexahistidine tag | 98 | 2.07e-11 | 6.7e-12 | –
Ac-AEAEAKAKAEAEAKAKHHHHHH-NH2 (hexa-histidine tag (H6) at the C-terminus; written as a part because Zn2+ bridges it to the His tag of the cargo protein; In the assays the peptide stood as self-assembled fibrils (coacervate), with ZnCl2 or CaCl2 where said; also called Zn2+:EAKH6 (its coacervate with zinc); Ca2+:EAKH6 (with calcium); source: synthetic peptide, custom-synthesized by Biomatek (>95% purity by HPLC)) [EAKH6 self-assembling peptide (EAK16-II with a C-terminal hexa-histidine tag)] | – | – | – | binds
